According to the supplement of paper PMC12667976:
± gives the standard error.

B1: library; numbered along this chain (parent)
chain: MATDAALRRLLRLHRTEIAVAVDSAFPLLHALADHDVVPEDKFQETLHLKEKEGCPQAFHALLSWLLTQDSTAILDFWRVLFKDYNLERYGRLQPILDSFPKDVDLSQPRKGRKPPAVPKALVPPPRLPTKRKASEEARAAAPAALTPRGTASPGSQLKAKPPKKPESSAEQQRLPLGNGIQTMSASVQRAVAMSSGDVPGARGAVEGILIQQVFESGGSKKCIQVGGEFYTPSKFEDSGSGKNKARSSSGPKPLVRAKGAQGAAPGGGEARLGQQGSVPAPLALPSDPQLHQKNEDECAVCRDGGELICCDGCPRAFHLACLSPPLREIPSGTWRCSSCLQATVQEVQPRAEEPRPQEPPVETPLPPGLRSAGEEVRGPPGEPLAGMDTTLVYKHLPAPPSAAPLPGLDSSALHPLLCVGPEGQQNLAPGARCGVCGDGTDVLRCTHCAAAFHWRCHFPAGTSRPGTGLRCRSCSGDVTPAPVEGVLAPSPARLAPGPAKDDTASHEPALHRDDLESLLSEHTFDGILQWAIQSMARPAAPFPS

Variants of: B1
Assay: AIRE transcriptional activation functional score (insulin promoter-GFP; nonsense median 0, synonymous median 1) (normalised score); higher = higher AIRE activity (more reporter activation)
Conditions: with insulin promoter-GFP reporter in HEK293
How it was run: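 Codon-optimized AIRE NNN-codon libraries (three regions) were integrated by Bxb1 recombinase into Flp-In T-REx HEK293 landing-pad cells carrying an insulin core promoter-GFP reporter. Integrants (mCherry+, BFP−) sorted at day 7 were expanded 7 days; top 10% GFP and unselected integrant populations were tile-sequenced. Functional score is select versus non-select variant enrichment, wild-type subtracted. Variants needed 10 counts per million in non-select; scores were rescaled to nonsense median 0 and synonymous median 1, then averaged over biological replicates.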

**Q.** How did the “AIRE transcriptional activation functional score” value turn out when P56I was run?
**A.** 0.82 ± 0.12

**Q.** For V226A, which “AIRE transcriptional activation functional score” value is on record?
**A.** 0.677 ± 0.31

**Q.** Which “AIRE transcriptional activation functional score” value does the source give for D503L here?
**A.** 1 ± 0.25

**Q.** How did the “AIRE transcriptional activation functional score” value turn out when D503F was run?
**A.** 0.724 ± 0.23

**Q.** How did the “AIRE transcriptional activation functional score” value turn out when A144P was run?
**A.** 1.65 ± 0.43

**Q.** How did the “AIRE transcriptional activation functional score” value turn out when G197E was run?
**A.** 0.192 ± 0.079

**Q.** K165E was tested. Which “AIRE transcriptional activation functional score” value did it give?
**A.** 1.01 ± 0.52

**Q.** Which “AIRE transcriptional activation functional score” value does the source give for L520S here?
**A.** -0.11 ± 0.097

**Q.** How did the “AIRE transcriptional activation functional score” value turn out when D34Q was run?
**A.** -0.011 ± 0.19

**Q.** How did the “AIRE transcriptional activation functional score” value turn out when V123Y was run?
**A.** 1.43 ± 0.12

**Q.** How did the “AIRE transcriptional activation functional score” value turn out when P367F was run?
**A.** 1.13 ± 0.083

**Q.** With P367Q as the variant, how does the “AIRE transcriptional activation functional score” value read?
**A.** 1.26 ± 0.22

**Q.** For A386K, which “AIRE transcriptional activation functional score” value is on record?
**A.** 1.1 ± 0.1

**Q.** Which “AIRE transcriptional activation functional score” value does the source give for D84K here?
**A.** -0.063 ± 1.1

**Q.** With P499Y as the variant, how does the “AIRE transcriptional activation functional score” value read?
**A.** 1.13 ± 0.21

**Q.** For P499F, which “AIRE transcriptional activation functional score” value is on record?
**A.** 1.11 ± 0.077

**Q.** For L511A, which “AIRE transcriptional activation functional score” value is on record?
**A.** 0.757 ± 0.46

**Q.** For L444E, which “AIRE transcriptional activation functional score” value is on record?
**A.** 0.903 ± 0.13

**Q.** Which “AIRE transcriptional activation functional score” value does the source give for R433E here?
**A.** 1.39 ± 0.07

**Q.** For S278K, which “AIRE transcriptional activation functional score” value is on record?
**A.** 1.28 ± 0.24

**Q.** With A33E as the variant, how does the “AIRE transcriptional activation functional score” value read?
**A.** 0.898 ± 0.21

**Q.** With A33V as the variant, how does the “AIRE transcriptional activation functional score” value read?
**A.** 1.53 ± 0.84

**Q.** For V214M, which “AIRE transcriptional activation functional score” value is on record?
**A.** 0.284 ± 0.11

**Q.** How did the “AIRE transcriptional activation functional score” value turn out when T16D was run?
**A.** -0.128 ± 0.45

**Q.** A261S was tested. Which “AIRE transcriptional activation functional score” value did it give?
**A.** 0.631 ± 0.26

**Q.** A261C was tested. Which “AIRE transcriptional activation functional score” value did it give?
**A.** 1.11 ± 0.27

**Q.** S287H was tested. Which “AIRE transcriptional activation functional score” value did it give?
**A.** 0.964 ± 0.16

**Q.** C337N was tested. Which “AIRE transcriptional activation functional score” value did it give?
**A.** 1.53 ± 0.22

**Q.** With C337L as the variant, how does the “AIRE transcriptional activation functional score” value read?
**A.** 1.16 ± 0.089

**Q.** A300G was tested. Which “AIRE transcriptional activation functional score” value did it give?
**A.** 0.768 ± 0.17

**Q.** For L62Q, which “AIRE transcriptional activation functional score” value is on record?
**A.** 0.0502 ± 0.23

**Q.** L49S was tested. Which “AIRE transcriptional activation functional score” value did it give?
**A.** -0.858 ± 0.78

**Q.** G469I was tested. Which “AIRE transcriptional activation functional score” value did it give?
**A.** 0.951 ± 0.33

**Q.** How did the “AIRE transcriptional activation functional score” value turn out when A264L was run?
**A.** 1.18 ± 0.35

**Q.** A186D was tested. Which “AIRE transcriptional activation functional score” value did it give?
**A.** 1.11 ± 0.061

**Q.** How did the “AIRE transcriptional activation functional score” value turn out when A186W was run?
**A.** 0.156 ± 0.039

**Q.** For E137V, which “AIRE transcriptional activation functional score” value is on record?
**A.** 0.84 ± 0.52

**Q.** For P357W, which “AIRE transcriptional activation functional score” value is on record?
**A.** 1.17 ± 0.017

**Q.** For P280F, which “AIRE transcriptional activation functional score” value is on record?
**A.** 1.58 ± 0.24

**Q.** Q108D was tested. Which “AIRE transcriptional activation functional score” value did it give?
**A.** 2.03 ± 0.31

**Q.** Which “AIRE transcriptional activation functional score” value does the source give for D442E here?
**A.** 0.869 ± 0.1

**Q.** For L75R, which “AIRE transcriptional activation functional score” value is on record?
**A.** 0.518 ± 0.39

**Q.** For S196R, which “AIRE transcriptional activation functional score” value is on record?
**A.** 1.16 ± 0.17

**Q.** How did the “AIRE transcriptional activation functional score” value turn out when E522K was run?
**A.** 0.503 ± 0.2

**Q.** For F215R, which “AIRE transcriptional activation functional score” value is on record?
**A.** 0.351 ± 0.33

**Q.** For R12A, which “AIRE transcriptional activation functional score” value is on record?
**A.** -0.914 ± 0.56

**Q.** With S332Y as the variant, how does the “AIRE transcriptional activation functional score” value read?
**A.** 1.13 ± 0.22

**Q.** For V479K, which “AIRE transcriptional activation functional score” value is on record?
**A.** 0.833 ± 0.14

**Q.** P466D was tested. Which “AIRE transcriptional activation functional score” value did it give?
**A.** 0.553 ± 0.043

**Q.** With A489H as the variant, how does the “AIRE transcriptional activation functional score” value read?
**A.** 1.18 ± 0.099

**Q.** R89M was tested. Which “AIRE transcriptional activation functional score” value did it give?
**A.** -2.04 ± 0.26

**Q.** C314P was tested. Which “AIRE transcriptional activation functional score” value did it give?
**A.** 1.1 ± 0.25

**Q.** L13C was tested. Which “AIRE transcriptional activation functional score” value did it give?
**A.** 0.26 ± 0.64

**Q.** Which “AIRE transcriptional activation functional score” value does the source give for G387S here?
**A.** 0.84 ± 0.18

**Q.** How did the “AIRE transcriptional activation functional score” value turn out when P460Y was run?
**A.** 0.38 ± 0.15

**Q.** For R445G, which “AIRE transcriptional activation functional score” value is on record?
**A.** 0.978 ± 0.24

**Q.** How did the “AIRE transcriptional activation functional score” value turn out when R445W was run?
**A.** 0.804 ± 0.14

**Q.** R149S was tested. Which “AIRE transcriptional activation functional score” value did it give?
**A.** 1.26 ± 0.3

**Q.** Which “AIRE transcriptional activation functional score” value does the source give for D198N here?
**A.** 1.09 ± 0.14

**Q.** With D198H as the variant, how does the “AIRE transcriptional activation functional score” value read?
**A.** 0.856 ± 0.32

**Q.** For E237S, which “AIRE transcriptional activation functional score” value is on record?
**A.** 0.791 ± 0.32

**Q.** For S339I, which “AIRE transcriptional activation functional score” value is on record?
**A.** 0.884 ± 0.15

**Q.** For A321L, which “AIRE transcriptional activation functional score” value is on record?
**A.** 0.961 ± 0.3

**Q.** Which “AIRE transcriptional activation functional score” value does the source give for G242R here?
**A.** 0.611 ± 0.3

**Q.** For Q173W, which “AIRE transcriptional activation functional score” value is on record?
**A.** 1.54 ± 0.13

**Q.** With H14C as the variant, how does the “AIRE transcriptional activation functional score” value read?
**A.** -0.236 ± 0.35

**Q.** How did the “AIRE transcriptional activation functional score” value turn out when C311A was run?
**A.** 1.11 ± 0.33

**Q.** Which “AIRE transcriptional activation functional score” value does the source give for A450R here?
**A.** 1.4 ± 0.074

**Q.** C449V was tested. Which “AIRE transcriptional activation functional score” value did it give?
**A.** 0.0568 ± 0.16

**Q.** Which “AIRE transcriptional activation functional score” value does the source give for C449G here?
**A.** 0.257 ± 0.22

**Q.** Which “AIRE transcriptional activation functional score” value does the source give for P497H here?
**A.** 0.871 ± 0.17

**Q.** How did the “AIRE transcriptional activation functional score” value turn out when D23C was run?
**A.** -0.0222 ± 0.1

**Q.** How did the “AIRE transcriptional activation functional score” value turn out when P27Q was run?
**A.** 0.267 ± 0.15

**Q.** A532P was tested. Which “AIRE transcriptional activation functional score” value did it give?
**A.** 0.00951 ± 0.22

**Q.** D389K was tested. Which “AIRE transcriptional activation functional score” value did it give?
**A.** 0.278 ± 0.3

**Q.** For K221A, which “AIRE transcriptional activation functional score” value is on record?
**A.** -0.576 ± 0.14

**Q.** How did the “AIRE transcriptional activation functional score” value turn out when V104R was run?
**A.** 0.389 ± 0.5

**Q.** A152G was tested. Which “AIRE transcriptional activation functional score” value did it give?
**A.** 0.815 ± 0.37

**Q.** How did the “AIRE transcriptional activation functional score” value turn out when A152H was run?
**A.** 0.789 ± 0.29

**Q.** Y85C was tested. Which “AIRE transcriptional activation functional score” value did it give?
**A.** 0.367 ± 0.2

**Q.** With Y85D as the variant, how does the “AIRE transcriptional activation functional score” value read?
**A.** 0.0634 ± 0.032

**Q.** For C302K, which “AIRE transcriptional activation functional score” value is on record?
**A.** 0.3 ± 0.066

**Q.** Which “AIRE transcriptional activation functional score” value does the source give for G218A here?
**A.** 1.02 ± 0.25

**Q.** G218K was tested. Which “AIRE transcriptional activation functional score” value did it give?
**A.** 0.888 ± 0.1
